The results in this text go back to PMC8876501, “Structural and Functional Insight into the Mechanism of Bacillus subtilis 6S-1 RNA Release from RNA Polymerase”.

Numbering of substitutions follows the chain as printed. Names may count otherwise.

Data set [1] has as its target T1, native sigmaA-RNA polymerase holoenzyme (Bacillus subtilis, UniProt P20429;P37870;P37871;P06224 1-314;1-1193;1-1199;1-371). In words: EMSA; 5 mM Mg2+, heparin 80 ng/uL; 40 mM Tris-HCl pH 8.0, 5 mM MgCl2, 160 mM KCl, 1 mM DTT, heparin 80 ng/uL, ~10 nM RNA, plus RNAP storage buffer; 30 min at 37 C; native 7.5% PAGE (10% for Fig 12). The note with it: protein: native, chain copies: 2;1;1;1, label: 5'-32P. For orientation: In EMSA bound probe runs differently from free probe, usually more slowly.

The target in data set [2] is T2, sigmaA-RNA polymerase holoenzyme (native or His-tagged SG7 preparation, not specified for this assay) (Bacillus subtilis, UniProt P20429;P37870;P37871;P06224 1-314;1-1193;1-1199;1-371). Nature of the data set: EMSA; K1/2 printed only in graph; 40 mM Tris-HCl pH 8.0, 5 mM MgCl2, 160 mM KCl, 1 mM DTT, heparin 80 ng/uL, ~10 nM RNA, plus RNAP storage buffer; 30 min at 37 C; native 7.5% PAGE (10% for Fig 12). Conditions: protein: native; chain copies: 2;1;1;1; label: 5'-32P.

Data set [3] concerns the target T1, native sigmaA-RNA polymerase holoenzyme. In words: EMSA; Kd printed only in graph; 40 mM Tris-HCl pH 8.0, 5 mM MgCl2, 160 mM KCl, 1 mM DTT, heparin 80 ng/uL, ~10 nM RNA, plus RNAP storage buffer; 30 min at 37 C; native 7.5% PAGE (10% for Fig 12). The note with it: protein: native; chain copies: 2;1;1;1; label: 5'-32P.
For data set [4] the target is unchanged. Nature of the data set: EMSA; pLNA pre-annealed; 40 mM Tris-HCl pH 8.0, 5 mM MgCl2, 160 mM KCl, 1 mM DTT, heparin 80 ng/uL, ~10 nM RNA, plus RNAP storage buffer; 30 min at 37 C; native 7.5% PAGE (10% for Fig 12). Conditions: protein: native; chain copies: 2;1;1;1; label: 5'-32P on 6S-1 RNA; pLNA annealed to 6S-1 RNA from nt 40 upstream.
Data set [5] has the same target. In words: EMSA; pRNA pre-annealed; 40 mM Tris-HCl pH 8.0, 5 mM MgCl2, 160 mM KCl, 1 mM DTT, heparin 80 ng/uL, ~10 nM RNA, plus RNAP storage buffer; 30 min at 37 C; native 7.5% PAGE (10% for Fig 12). The note with it: protein: native; chain copies: 2;1;1;1; label: 5'-32P on 6S-1 RNA; pRNA annealed to 6S-1 RNA from nt 40 upstream.
The target of data set [6] is T2, sigmaA-RNA polymerase holoenzyme …. In words: EMSA; almost three-fold; K1/2 only in graph; 40 mM Tris-HCl pH 8.0, 5 mM MgCl2, 160 mM KCl, 1 mM DTT, heparin 80 ng/uL, ~10 nM RNA, plus RNAP storage buffer; 30 min at 37 C; native 7.5% PAGE (10% for Fig 12). Conditions: protein: native; chain copies: 2;1;1;1; label: 5'-32P.
The target of data set [7] is T1, native sigmaA-RNA polymerase holoenzyme. Nature of the data set: EMSA; up to 3-fold with other RNAP preparations; 40 mM Tris-HCl pH 8.0, 5 mM MgCl2, 160 mM KCl, 1 mM DTT, heparin 80 ng/uL, ~10 nM RNA, plus RNAP storage buffer; 30 min at 37 C; native 7.5% PAGE (10% for Fig 12). The note with it: protein: native; chain copies: 2;1;1;1; label: 5'-32P.

T1 sequence (P20429 whole entry, chain 1 of 4): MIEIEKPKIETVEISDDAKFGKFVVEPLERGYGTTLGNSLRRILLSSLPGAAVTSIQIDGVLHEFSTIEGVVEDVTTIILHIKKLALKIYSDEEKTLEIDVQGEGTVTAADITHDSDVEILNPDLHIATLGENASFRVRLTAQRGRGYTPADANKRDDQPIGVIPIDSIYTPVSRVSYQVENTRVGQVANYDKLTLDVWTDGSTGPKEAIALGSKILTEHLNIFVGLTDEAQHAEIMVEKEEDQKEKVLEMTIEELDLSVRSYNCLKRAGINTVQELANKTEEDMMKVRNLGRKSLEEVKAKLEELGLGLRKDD
T1 sequence (P37870 whole entry, chain 2 of 4): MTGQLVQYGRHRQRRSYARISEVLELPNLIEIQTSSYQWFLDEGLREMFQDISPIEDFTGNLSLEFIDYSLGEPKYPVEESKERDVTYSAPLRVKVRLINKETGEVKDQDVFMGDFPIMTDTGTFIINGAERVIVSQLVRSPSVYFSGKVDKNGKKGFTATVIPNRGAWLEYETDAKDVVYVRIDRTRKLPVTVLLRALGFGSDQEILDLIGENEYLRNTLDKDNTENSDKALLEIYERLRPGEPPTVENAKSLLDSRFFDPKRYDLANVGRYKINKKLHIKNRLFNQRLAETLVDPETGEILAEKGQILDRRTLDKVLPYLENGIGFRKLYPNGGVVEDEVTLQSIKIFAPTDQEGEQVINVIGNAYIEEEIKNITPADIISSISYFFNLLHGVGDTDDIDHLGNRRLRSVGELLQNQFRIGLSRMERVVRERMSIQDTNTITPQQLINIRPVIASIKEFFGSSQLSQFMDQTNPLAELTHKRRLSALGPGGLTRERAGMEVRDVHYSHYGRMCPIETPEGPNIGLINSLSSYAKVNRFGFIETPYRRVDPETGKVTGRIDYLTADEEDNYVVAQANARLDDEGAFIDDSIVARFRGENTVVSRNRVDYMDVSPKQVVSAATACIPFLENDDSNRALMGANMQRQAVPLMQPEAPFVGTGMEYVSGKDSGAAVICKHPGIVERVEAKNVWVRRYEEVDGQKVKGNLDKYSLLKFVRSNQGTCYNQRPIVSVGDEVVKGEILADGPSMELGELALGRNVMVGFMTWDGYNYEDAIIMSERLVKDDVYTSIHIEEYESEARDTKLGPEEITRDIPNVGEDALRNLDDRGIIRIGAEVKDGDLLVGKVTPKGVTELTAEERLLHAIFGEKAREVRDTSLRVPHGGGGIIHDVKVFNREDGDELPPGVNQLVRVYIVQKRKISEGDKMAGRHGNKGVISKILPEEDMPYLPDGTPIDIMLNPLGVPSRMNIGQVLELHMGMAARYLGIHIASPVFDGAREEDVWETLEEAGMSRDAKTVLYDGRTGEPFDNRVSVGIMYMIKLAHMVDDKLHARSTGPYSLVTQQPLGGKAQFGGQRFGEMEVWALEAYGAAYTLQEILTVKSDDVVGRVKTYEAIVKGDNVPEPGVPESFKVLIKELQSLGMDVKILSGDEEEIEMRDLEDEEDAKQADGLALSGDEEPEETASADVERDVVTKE
T1 sequence (P37871 whole entry, chain 3 of 4): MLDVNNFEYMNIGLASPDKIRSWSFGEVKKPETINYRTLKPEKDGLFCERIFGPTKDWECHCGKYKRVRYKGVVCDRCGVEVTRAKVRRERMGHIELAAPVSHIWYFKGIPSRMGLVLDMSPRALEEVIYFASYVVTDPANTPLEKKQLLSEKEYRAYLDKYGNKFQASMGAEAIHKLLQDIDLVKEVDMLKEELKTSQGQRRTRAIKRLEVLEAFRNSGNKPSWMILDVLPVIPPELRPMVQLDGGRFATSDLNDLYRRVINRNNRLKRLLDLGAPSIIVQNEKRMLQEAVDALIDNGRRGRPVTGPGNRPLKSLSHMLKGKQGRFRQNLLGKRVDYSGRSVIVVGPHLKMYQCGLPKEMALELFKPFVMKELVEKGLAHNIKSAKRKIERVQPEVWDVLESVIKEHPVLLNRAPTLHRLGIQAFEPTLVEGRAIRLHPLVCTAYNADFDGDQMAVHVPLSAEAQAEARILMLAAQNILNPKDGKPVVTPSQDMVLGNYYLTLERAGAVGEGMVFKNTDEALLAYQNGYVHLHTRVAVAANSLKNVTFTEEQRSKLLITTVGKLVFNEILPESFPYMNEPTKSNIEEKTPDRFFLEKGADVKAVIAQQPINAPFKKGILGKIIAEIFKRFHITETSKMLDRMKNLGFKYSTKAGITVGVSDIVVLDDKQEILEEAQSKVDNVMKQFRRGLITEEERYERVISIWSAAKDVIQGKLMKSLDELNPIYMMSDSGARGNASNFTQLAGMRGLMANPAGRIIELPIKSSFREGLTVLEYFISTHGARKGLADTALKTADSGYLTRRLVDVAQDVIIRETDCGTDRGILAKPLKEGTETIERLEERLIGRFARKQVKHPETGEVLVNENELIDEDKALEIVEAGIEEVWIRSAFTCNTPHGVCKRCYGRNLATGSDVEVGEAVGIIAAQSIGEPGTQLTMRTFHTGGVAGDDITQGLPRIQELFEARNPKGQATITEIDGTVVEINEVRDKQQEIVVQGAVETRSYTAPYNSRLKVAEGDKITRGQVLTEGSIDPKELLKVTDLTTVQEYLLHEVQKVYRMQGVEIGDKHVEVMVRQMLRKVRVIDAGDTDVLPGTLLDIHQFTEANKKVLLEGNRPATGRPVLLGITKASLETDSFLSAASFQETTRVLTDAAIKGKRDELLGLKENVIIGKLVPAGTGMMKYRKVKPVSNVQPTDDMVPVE
T1 sequence (P06224 whole entry, chain 4 of 4): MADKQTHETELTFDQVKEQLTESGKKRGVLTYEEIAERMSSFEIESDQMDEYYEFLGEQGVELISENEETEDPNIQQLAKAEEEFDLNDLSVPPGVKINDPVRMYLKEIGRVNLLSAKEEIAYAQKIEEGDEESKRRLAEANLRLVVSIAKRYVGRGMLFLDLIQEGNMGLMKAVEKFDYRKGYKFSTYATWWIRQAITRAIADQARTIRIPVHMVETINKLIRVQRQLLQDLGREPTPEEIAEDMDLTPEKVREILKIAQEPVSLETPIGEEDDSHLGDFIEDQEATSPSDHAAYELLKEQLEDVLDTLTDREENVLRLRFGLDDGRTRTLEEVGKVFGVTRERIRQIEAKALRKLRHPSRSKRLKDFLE
T2 sequence (P20429 whole entry, chain 1 of 4): as the sequence (P20429 whole entry, chain 1 of 4) above
T2 sequence (P37870 whole entry, chain 2 of 4): as the sequence (P37870 whole entry, chain 2 of 4) above
T2 sequence (P37871 whole entry, chain 3 of 4): as the sequence (P37871 whole entry, chain 3 of 4) above
T2 sequence (P06224 whole entry, chain 4 of 4): as the sequence (P06224 whole entry, chain 4 of 4) above

B1: 6S78 RNA (structured_RNA)
RNA: CCUAGUUUUGACCGAACAUUUUUUUGAUUUGGGAGCCCGCAGGGCACCCACCUGCUGAGAGCGGGUUCAAAACAAAGG
Consider B1, for which the “apparent K (half saturation)” value in data set [1] is around 1000 nM.

B2: 6S82cp RNA (structured_RNA)
RNA: GGGCACCCACCUGCUGAGAGCGGGUUCAAAACAAAGGAAAGCCACCUAGUUUUGACCGAACAUUUUUUUGAUUUGGGAGCCC
For B2, the “apparent K (half saturation)” value in data set [1] (artificial loop capping P2) was around 1000 nM.

B3: wt 6S-1 RNA (190 nt) (structured_RNA)
RNA: AGUCCUGAUGUGUUAGUUGUACACCUAGUUUUGACCGAACAUUUUUUUGAUUUGGGAGCCCGCAUUUUUAAAUGGCGUACAUGCCUCUUUUCAUUCGGUAAAGAGGACUUACAAGAUUUAAAAGAGGGCACCCACCUGCUGAGAGCGGGUUCAAAACAAAGGAAAGCUGCAACGGCACUAUUGGGACUUU
For the molecule B3, the “apparent K (half saturation)” value in data set [1] (rod-shaped, central bubble flanked by two helical arms) was around 100 nM.

B4: C44/45 8M 6S-1 RNA (structured_RNA)
RNA: B3 RNA with U30C, U31A, U32A, A34G, U44C, U45C, U151C, A153U, A154U, A155G
As for B4, the binding signal in data set [2] was ~1.5 fold lower affinity vs wt 8M.

B5: 6S-1 RNA A50U (structured_RNA)
RNA: B3 RNA with A50U
Consider B5, for which the binding signal in data set [3] is around 2 fold Kd increase vs wt.

B6: 6S-1 RNA:pLNA 6-mer (mixed)
RNA: B3 RNA
DNA: GTTCGG
modifications: strand 2 LNA, iso-sequential to pRNA (first 6 nt inferred)
Regarding B6, the binding result in data set [4] was “no binding”.

B7: 6S-1 RNA:pRNA 14-mer (structured_RNA)
RNA 1: B3 RNA
RNA 2: GUUCGGUCAAAACU
In the case of B7, the binding result in data set [5] is reported as “no binding”.

B8: C44/45 6M 6S-1 RNA (structured_RNA)
RNA: B3 RNA with U30C, U31A, U32A, A34G, U44C, U45C, A154U, A155G
For B8, the binding signal in data set [6] is ~3 fold lower affinity vs wt 6M.

B9: 6S-1 RNA:pLNA 8-mer (mixed)
RNA: B3 RNA
DNA: GTTCGGTC
modifications: strand 2 all-LNA
Consider B9, for which the binding result in data set [4] was “no binding”.

B10: 6S-1 RNA C44/45 (structured_RNA)
RNA: B3 RNA with U44C, U45C
As for B10, the binding signal in data set [7] was around 2 fold lower affinity vs wt.

B11: 6S-1 RNA:pLNA 7-mer (mixed)
RNA: B3 RNA
DNA: GTTCGGT
modifications: strand 2 LNA, iso-sequential to pRNA (first 7 nt inferred)
Turning to B11, the binding result in data set [4] is listed as “no binding”.
